{"source": "paper PMC12428796", "origin": "cited, not measured here", "details_in_all_cases": "No direct protein-aptamer binding assay in this paper (only cell uptake by flow cytometry/confocal in MIA PaCa-2 and L929, with anti-nucleolin blocking)", "key": {"[1]": {"molecular_target": "transferrin receptor 1 (TfR1) (UniProt P02786)", "sequence (P02786 whole entry)": "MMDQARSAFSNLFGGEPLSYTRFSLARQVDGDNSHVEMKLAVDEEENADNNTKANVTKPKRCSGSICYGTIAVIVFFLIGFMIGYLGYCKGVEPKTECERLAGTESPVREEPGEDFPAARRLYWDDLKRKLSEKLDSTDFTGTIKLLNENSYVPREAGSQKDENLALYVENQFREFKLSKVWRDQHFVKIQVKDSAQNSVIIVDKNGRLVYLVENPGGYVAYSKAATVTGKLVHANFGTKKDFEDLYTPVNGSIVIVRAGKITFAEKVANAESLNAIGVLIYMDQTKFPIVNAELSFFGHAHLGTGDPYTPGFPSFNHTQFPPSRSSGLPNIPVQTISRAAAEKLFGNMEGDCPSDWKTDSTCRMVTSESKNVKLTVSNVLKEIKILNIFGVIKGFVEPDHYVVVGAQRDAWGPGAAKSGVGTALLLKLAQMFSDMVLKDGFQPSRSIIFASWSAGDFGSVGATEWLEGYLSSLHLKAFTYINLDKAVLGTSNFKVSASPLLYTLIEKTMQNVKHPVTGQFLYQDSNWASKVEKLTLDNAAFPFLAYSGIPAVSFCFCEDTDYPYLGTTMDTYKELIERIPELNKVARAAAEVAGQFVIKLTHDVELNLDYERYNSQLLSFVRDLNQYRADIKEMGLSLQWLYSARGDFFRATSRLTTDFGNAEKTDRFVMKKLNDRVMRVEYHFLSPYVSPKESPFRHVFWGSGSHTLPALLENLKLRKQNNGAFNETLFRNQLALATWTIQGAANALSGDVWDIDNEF"}, "nucleolin": {"molecular_target": "nucleolin (UniProt P19338)", "sequence (P19338 whole entry)": "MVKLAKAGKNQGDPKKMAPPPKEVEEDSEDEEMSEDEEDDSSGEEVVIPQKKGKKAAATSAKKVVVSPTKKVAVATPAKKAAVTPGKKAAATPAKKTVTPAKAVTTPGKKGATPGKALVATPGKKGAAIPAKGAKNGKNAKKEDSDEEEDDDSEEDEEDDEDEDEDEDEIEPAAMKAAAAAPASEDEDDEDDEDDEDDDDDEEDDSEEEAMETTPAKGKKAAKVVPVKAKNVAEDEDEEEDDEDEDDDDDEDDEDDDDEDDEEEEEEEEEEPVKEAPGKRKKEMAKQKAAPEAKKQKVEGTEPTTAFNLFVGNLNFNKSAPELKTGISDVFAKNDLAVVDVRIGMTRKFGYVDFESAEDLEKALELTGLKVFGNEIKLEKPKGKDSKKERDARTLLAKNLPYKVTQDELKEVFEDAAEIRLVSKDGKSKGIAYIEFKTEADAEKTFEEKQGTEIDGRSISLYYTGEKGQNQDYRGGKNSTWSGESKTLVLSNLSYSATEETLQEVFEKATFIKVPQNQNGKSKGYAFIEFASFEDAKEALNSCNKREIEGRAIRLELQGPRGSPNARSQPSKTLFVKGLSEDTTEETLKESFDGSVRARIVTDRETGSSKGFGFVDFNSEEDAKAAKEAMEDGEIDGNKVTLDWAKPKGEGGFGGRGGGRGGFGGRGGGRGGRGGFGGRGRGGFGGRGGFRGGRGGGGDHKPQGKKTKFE"}, "[2]": {"molecular_target": "matrix metalloproteinase 14 (MMP14) (UniProt P50281)"}, "[3]": {"molecular_target": "T1, cholecystokinin B receptor (CCKBR) (UniProt P32239)", "T1 sequence (P32239 whole entry, looked up)": "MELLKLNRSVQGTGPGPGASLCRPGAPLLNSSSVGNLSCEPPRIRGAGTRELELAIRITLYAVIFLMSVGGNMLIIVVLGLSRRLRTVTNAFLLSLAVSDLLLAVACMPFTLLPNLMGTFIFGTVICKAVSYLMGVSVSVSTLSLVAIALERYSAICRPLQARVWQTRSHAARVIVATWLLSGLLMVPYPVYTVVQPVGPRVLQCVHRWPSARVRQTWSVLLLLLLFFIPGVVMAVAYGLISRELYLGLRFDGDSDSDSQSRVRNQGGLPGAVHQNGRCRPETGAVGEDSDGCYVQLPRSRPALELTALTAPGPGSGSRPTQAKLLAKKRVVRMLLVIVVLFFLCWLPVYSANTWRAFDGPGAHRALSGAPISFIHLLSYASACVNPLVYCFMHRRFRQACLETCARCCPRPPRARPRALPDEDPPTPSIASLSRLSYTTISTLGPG"}}, "note": "pKd: −log10 of the molar value."}
{"sequence": "ACTCATAGGGTTAGGGGCTGCTGGCCAGATACTCAGATGGTAGGGTTACTATGAGC [XQ-2D]", "values": [{"measurement": "pKd", "setting": "[1]", "value": 7.26}]}
{"sequence": "GGTGGTGGTGGTGTTGGTGGTGGTGG [AS1411]", "values": [{"measurement": "pKd", "setting": "nucleolin", "value": 7.79}]}
{"sequence": "AGGGCCCGACGTGACGGCACGTCGGATATCTCATGCGTGT [M17]", "values": [{"measurement": "pKd", "setting": "[2]", "value": 8.30}]}
{"sequence": "CATGGTGCAGGTGTGGCTGGGATTCATTTGCCGGTGCTGGTGCGTCCGCGGCCGCTAATCCTGTTC [AP1153]", "values": [{"measurement": "pKd", "setting": "[3]", "value": 9.69}]}
